Results as given in the RNAGym collection of RNA variant scans (doi:10.1073/pnas.2313332121).

B1: TPR t1 (parent)
chain: GACCAAUCUGCCCUCAGAGCUCGAGAACAUCUUCGGAUGCAGAGGAGGCAGGCUUCGGUGGCGCGAUAGCGCCAACGUCCUCAACCUCCAAUGCAUCCCACCACAUGAUGAUGCCUGAAGAGCCUUGGUUUUUUG

Variants of: B1
Assay: polymerase ribozyme fitness, log enrichment relative to wild type (log ratio); higher = more active; in vitro selection for triplet polymerase activity
Summary of the method: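 Input and output libraries were sequenced on Illumina after a single in vitro selection round, run in triplicate on PCR-built, transcribed mutant libraries of each subunit of a heterodimeric triplet polymerase ribozyme. Selection annealed libraries to a biotinylated primer, the partner subunit and triplets, incubated them frozen at −7 °C, then gel-excised extended constructs for streptavidin-bead capture and RT-PCR. Genotypes with ≥10 input reads and ≥1 read per output were kept. Fitness is the logarithm, taken in base 2, of genotype enrichment divided by wild-type enrichment, using inverse-variance-weighted replicate averages.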

Variant	polymerase ribozyme fitness (log ratio)
A18G G57U	-3.92
A18C C40U C73U	-2.05
G17U U96A A119G	-1.01
A18U A50C C70A G71A C123U	-6.84
A18G C20U A95C	-1.56
G17U A84U	-2.44
A18C G61A C85G	-3.25
A18C C72G C89G C114A U130A	-4.03
A18U C40U G113A G117A	-6
G17U G117A U129A	-4.12
A18G C64G C98U G117C	-5.51
G17U G57A C101A G107U G120C G127A U132C	-5.32
A18U C20G A50U C72G G113A	-4.8
A18C G71C A121C C123U C124U	-3.96
A18C U78C	-1.87
A18C C72G U78C C104A C114G	-3.63
A18U C79G G110A	-6
A18U C22U A37U A118U	-5.28
G17U C114A	-5.05
A18U A66U	-3.87
G17C G60A	-4.31
G17C G60C	-4.24
G17U A111G U133G	-2.2
A18C A83G A105G C115U	-3.42

Variant	polymerase ribozyme fitness (log ratio)
A18G A43U G71A	-4.88
A18G C72U U81A A91U U96C G120A G128A	-6.28
A18U C22U A43G G60A	-6.88
A18U A95G	-2.21
A18U C28U G36U C70U C79G G120A C124A	-6.76
A18C A121C	-1.86
A18C C34U U112A A119G	-6.08
A18C A111U	-5.16
A18C A111G	0.883
A18U A83U G120A	-2.42
A18C G19A G71U C104U C115A	-0.527
A18G A27G	-4.94
G17U A43U A119U	-5.06
A18C A43C G113A	-2.81
A18U C20G	-4.36
A18U C85A	-4.19
G17C G120C	-1.58
A18U C88A	-3.06
G17U C82G	-2.98
A18C G61C	-2.87
G17U	-2.29
A18U A43G G60A U92C U112C	-0.561
G17U C72G	-2.35
G17U A83U C123G	-1.3

Variant	polymerase ribozyme fitness (log ratio)
A18C A37G C62G	-6.59
A18G G19A A43C C56U C70U G110A	-4.41
A18C G42U A46G G47A C86U	-2
A18G C114U	-3.96
A18C G61C C89G U116C C124A	-2.98
A18U A29G A43U G52A G60A C88U C94U	-5.06
A18G G69U U81C G107U	-3.65
A18G C72A	-2.98
A18G G44U C86A C104U G120C	-3.98
A18C C89G U106A	-2.89
A18G C49U G107A	-5.11
G17U C62A	-2.83
A18C U54G U87G A121U	-0.603
G17U C49A C56A	-4.3
A18U C56U U87G U106C A121C	-0.72
A18G G61C C114U	-5.18
A18C C101A	-3.03
A18C A24G	-3.95
G17U G71A A84U U96G G128U U130C	-5.57
A18U C70U A84G	-6.3
G17U G52U A83G C85U G120U	-3.18
A18G C20G C31A G60C C99A G110U	-1.91
G17U C20A G61U U87A	-4.07
A18C C56U	-2.56

Variant	polymerase ribozyme fitness (log ratio)
A18C C56A	-3.08
A18U A83C C94G C115G C123G U134G	-1.77
A18C G77C	-2.76
A18U C124U	-1.01
G17U G71U U81C C89G A119G G128A	-4.58
A18C G47U	-4.12
A18C G61C U112G	-6.42
A18G U129A	-4.53
G17U C56U	-2.12
G17U C56G	-3.08
A18U C62U	-2.48
A18U C62G	-4.86
A18U A90C G120A	-0.842
G17U A29G U55A	-4.06
A18U C88U A111U G127A	-5.73
A18C C40G C70A A83G C94U C115U U129G	-5.58
A18G A37G A66U C94U G113C G117A	-4.01
A18U G19A G39U C115G	-3
G17U A118U	-3.56
G17U U106A	-2.49
G17U G60U U81A	-3.3
G17U U38A G71C U125A	-4.76
A18G G19U A46G U59A C79A	-4.25
A18G C56G A83U G110C	-4.59

Variant	polymerase ribozyme fitness (log ratio)
A18C G52A G61A A118G	-2.74
G17U A83G	-2.64
G17C G113A	-6.34
A18G A43C U54A	-4.06
G17U C89G	-2.98
A18C A43U G63A U81A	-6.15
G17U C73G	-2.39
A18G G122A	-3.35
A18G G19U C49U C85U G110C U112G	-5.77
A18U A37C C82G U92C U116A A121G	-5.42
A18C C73A	-2.69
A18C C73U	-2.53
A18U C62U C86A C114U	-5.98
A18C C22G G63A U130G	-5.14
G17U U96C	-3.71
A18G C34G C70A U109A G128A	-5.92
A18U C72U C85A	-3.5
A18C G69C U133A	-4.77
A18U A46C G52A	-4.31
A18G U21C G110A	-2.38
A18U C62U A84C G120U G135U	-5.35
A18C U21A C72G G93C	-4.4
A18G C62U C86G	-4.96
A18G G48U C72A U130G	-6.5

Variant	polymerase ribozyme fitness (log ratio)
A18U C40A	-3.76
A18C G113C	-3.55
G17U C49U C115U C123G U130A	-4.8
G17C U78C C89A U96A	-4.94
A18U C62U C64U A74C A90U A121C U129A	-6.59
A18U C79A G93A U116A C124U	-6.2
A18U A83U C101A	-3.63
A18C C49G	-3.27
A18U C89U	-1.53
A18U G35U U54G C88A U112A	-7.02
A18C C56G C124A	-0.202
A18U C123U	-1.12
A18C C124G G128U	-3.83
A18C A83C	-1.95
A18G C62U	-2.68
A18U C62G C82A C114A U131A G135A	-4.32
A18C C89G	-2.48
G17U G47A C49U C53U C72U	-4
A18C C64U	-2.61
G17U A27U G61U	-6.16
A18G C56G G58C C114A	-3.34
A18G C70A	-4.01
A18G G63C C85U G110U	-3.81
A18C A50C G58A C97U	-5.7

Variant	polymerase ribozyme fitness (log ratio)
A18U C28U	-5.29
A18C G48A	-2.74
G17U G48U C56A U78C U87G U112A	-3.06
G17U G39U G110U	-4.99
A18C U112G	-3
A18G A68U U87G U109A	-5.24
G17U G63A U112A U125G	-3.29
A18U C49G C88A C101A C123U U126A	-4.99
A18C G35U A103U C115U	-4.68
A18U A41U	-2.88
A18U C49A	-2.29
A18U C49G	-3.54
G17U G61A C72A C89A	-4.9
A18G G63C	-2.89
A18G C82A	-4.16
G17U G69U	-0.0598
A18C G127C	-3.02
G17U C40G C89G	-6.24
G17U U133G	-2.64
A18C C49G C89G C123U	-2.67
A18G C31A C62U U112A C115U G122U	-5.9
A18U C56U C123G U129A	-1.91
A18G U106A U109C	-3.8
